{
  "source": "patent US20200362024A1",
  "about": "“BIOLOGICAL MATERIALS AND USES THEREOF” (IMPERIAL INNOVATIONS LIMITED, priority 2009, published 2020)",
  "molecules": {"B1": {"name": "FBG: recombinant fibrinogen-like globe, 227 amino acid globular domain at the C terminal of tenascin-C (protein)", "chain": "GLLYPFPKDCSQAMLNGDTTSGLYTIYLNGDKAEALEVFCDMTSDGGGWIVFLRRKNGRENFYQNWKAYAAGFGDRREEFWLGLDNLNKITAQGQYELRVDLRDHGETAFAVYDKFSVGDAKTRYKLKVEGYSGTAGDSMAYHNGRSFSTFDKDTDSAITNCALSYKGAFWYRNCHRVNLMGRYGDNNHSQGVNWFHWKGHEHSIQFAEMKLRPSNFRNLEGRRKRA"}},
  "key": {"[1]": {"test_system": "TLR2 or TLR4 deficient embryonic fibroblasts and bone marrow derived macrophages", "test": "Cytokine synthesis in embryonic fibroblasts and macrophages from TLR2 or TLR4 deficient mice", "assay_type": "cell-based, mouse", "details": "24 h", "text": "(§1) Homozygous TLR2 and TLR4 deficient mice on a C57BL/6 background (an inbred strain of mice with a black coat) were obtained from B&K Universal (Hull, UK) Hoshino (1999) and Takeuchi (1999). Homozygous MyD88 deficient mice on a C57BL/6 background were provided by the Sanger Institute (Cambridge, UK). Age matched congenic inbred wild type C57B/L6 mice were obtained from Charles River (Margate, UK). For isolation of mouse embryo fibroblasts one female aged 8-10 weeks was mated with two males aged 8-10 weeks. For isolation of bone marrow derived macrophages mice were female and between 10-12 weeks of age at the time of experimentation.\nMEFs express high levels of mRNA of all 9 murine TLRs and are specifically and highly responsive to TLR ligand activation. […] MEFs were isolated from d13 embryos harvested from age-matched, pregnant female wild type, TLR2, TLR4 and null mice (as described in Todaro (1963)). Fibroblasts were cultured at 2×10^4 cells/well in DMEM containing 10% (v/v) FBS and 100 U/ml penicillin/streptomycin in 96-well tissue culture plates for 24 hours before stimulation.\nBMDMs were derived by aspirating the femurs of age matched female wild type, TLR2 and TLR4 null mice as described in Butler (1999)) and culturing the cells for 7 days in DMEM, 20% (v/v) FBS, 10 ml/L (v/v) antibiotic-antimycotic solution PSA, 50 μM Mercaptoethanol and 10 ng/ml M-CSF. Macrophages were then cultured at 1×10^5 cells/well in DMEM, 20% (v/v) FBS, 10 ml/L (v/v) antibiotic-antimycotic solution PSA, 50 μM β-Mercaptoethanol in 96-well tissue culture plates for 24 hours before stimulation.\n(§2) Cells were incubated for 24 hours at 37° C. with the indicated doses of tenascin-C and recombinant tenascin-C fragments (1.0 μM-1.0 nM). Cells were also stimulated where indicated with LPS (1 ng/ml for human macrophages, 10 ng/ml for human fibroblasts, RA membrane cells and HEKs, 100 ng/ml for MEFS and BMDMs and 10 ng/ml for HEKS), PAM3 (10 ng/ml for human macrophages, human fibroblasts, and HEKs, 100 ng/ml for MEFs and BMDMs), murine IL-1 (5 ng/ml for MEFS) and murine TNF-α (100 ng/ml for MEFS). Unless specifically stated otherwise rough LPS was used for in vitro studies.\n(§3) Supernatants were subsequently examined for the presence of the cytokines TNF-α, IL-6, and IL-8 by enzyme-linked immunosorbent assay (ELISA) according to the manufacturer's instructions. Absorbance was read on a spectrophotometric ELISA plate reader (Labsystems Multiscan Biochromic, Vantaa, Finland) and analyzed using the Ascent software program (Thermo Labsystems, Altrincham, UK)."}, "[2]": {"test_system": "MyD88 deficient mouse embryonic fibroblasts", "test": "Cytokine synthesis in mouse embryonic fibroblasts from MyD88 deficient mice", "assay_type": "cell-based", "details": "24 h; FBG 1 μM, PAM3, LPS, TNFα 100 ng/ml, IL-1 5 ng/ml", "text": "as §1, with “Homozygous” for “Homozygous TLR2 and TLR4 deficient mice on a C57BL/6 background (an inbred strain of mice with a black coat) were obtained from B&K Universal (Hull, UK) Hoshino (1999) and Takeuchi (1999). Homozygous”\nMEFs express high levels of mRNA of all 9 murine TLRs and are specifically and highly responsive to TLR ligand activation. […] Fibroblasts were cultured at 2×10^4 cells/well in DMEM containing 10% (v/v) FBS and 100 U/ml penicillin/streptomycin in 96-well tissue culture plates for 24 hours before stimulation.\nas §2, §3"}},
  "data": [
    {"molecule": "B1", "values": [
      {"measurement": "cytokine synthesis in cells from TLR2 deficient mice", "setting": "[1]", "result": "unaffected"},
      {"measurement": "cytokine synthesis in cells from TLR4 deficient mice", "setting": "[1]", "result": "does not stimulate"},
      {"measurement": "cytokine synthesis in embryonic fibroblasts with targeted deletion of MyD88", "setting": "[2]", "result": "does not stimulate"}
    ]}
  ]
}
